Tested on: MS2 coat protein
Assay: apparent KD of MS2 coat protein; higher = weaker reporter binding
Conditions: Eterna round: R107
Procedure, shortened: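 In 100 mM Tris-HCl pH 7.5 with 80 mM KCl and 4 mM MgCl2, and without or with constant ligand, SNAP-549-labelled MS2 coat protein was titrated in twofold steps from 0.7 or 1.5 nM to 3 µM. Per-step times went from 0.8–1.5 h down to 10–20 min. The RNA switches were transcribed on-chip from Illumina sequencing clusters, and apparent KD is the per-design median of normalised cluster binding-curve fits.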

[1] = input ligand: theophylline 20 uM
[2] = input ligand: tryptophan 2.4 mM
[3] = input ligand: theophylline 2 mM

Sequence	apparent KD of MS2 coat protein (input ligand: arginine 13.2 mM) [nM]	apparent KD of MS2 coat protein [1] [nM]	apparent KD of MS2 coat protein [2] [nM]	apparent KD of MS2 coat protein (input ligand: none) [nM]	apparent KD of MS2 coat protein [3] [nM]
ACGAACGAUAGUGAUACCAGACGUACAUGAGGAUCACCCAUGUUUUGGGUAAGGUUAAUAGUCCCUUGGCAGCACUUUAAGUUCG [JR_ExcTheophyB_Sub007]	44.6	80.8	50.9	–	–
GCUUGGGUGGCCCAGCCCUGGCAGGGCGAUACCAGCACGGUAACGUGCCCUUGGCAGCGCACAUGAGGAUCACCCAUGUGGUGCG [#1 Exclusion - Theophylline A Attempt #27 (HarryS)]	52.8	161	112	–	–
AAUACCGGUCCUCGAAGUGAUCCUCAUGAACGAGGACCGGUACGGCCGCCACUCGAUAACAUGAGGAUCACCCAUGUAAUAAUAA [|T'-M'-Trp-Ms2|_Design4]	72.8	93.1	70.6	63.9	115
GGACUAACCAGAAGGAGCGACACGCAGAAACUGCAAAAUCCUCCGCACGAGGAUCACCCGUGUCAGGUAGGUCGCUGGUUAGUCG	38.6	63.6	49.7	54.3	60.2
AGUAACAUGAGGAUCACCCAUGUAUGAGAAGGAGCGUGUUUUAACACAGGUAGGUCGCUCAAUAUUAUUUACUAGCGAAAGCUAG [JR_SSArginiA_Sub007]	22	23.3	18	14.6	17.9
ACCUCAUAGGCGGCCGCCACUGUAAUGACUACGUCAAACAUGAGGAUCACCCAUGUAGUCAAUCACAGGACCGGGUCAUGGGUAG [Tryp B SS s2]	27.7	45.6	–	–	41.4
AGGACAUGAGGAUCACCCAUGUACUCUGAAGGAGCGUCGAGAACGACAGGUAGGUCGCAGGCUAAGGAAGGUGAUGCUCAAGAAG [Exclusion Arginine A GF7]	20.1	37.3	15.2	20.2	24.8
AGUUACAUGAGGAUCACCCAUGUCCGGUUGCGAGGACCGGUACGGCCGCCACUCGGGUACAUCCCAGAAAAUACUGAAUGCCUGC [theeternabot_sameState_MS2_Trp_A_15]	41.8	66.4	–	–	84.5
UAUAUAUAGAUGGAUACCAGCAGAGAAAACGUUUAUCCUAACAUGAGGAUCACCCAUGUAUGCCCUUGGCAGCUGUUUAUAUAUA [8.I]	18.9	31.5	22.6	–	–
CUUAUAGUAACUGAUACCAGUGUACUGACAUGAGGAUCACCCAUGUUGGGUUUUGUUGUACACCCUUGGCAGCAGAAUCUAUAAG [AstrosExyTheB#10]	49.2	65.7	58.8	–	–
AACGUAUACAGAAGGAGCGUGAUUUAUAUUUCUUUAACAUAUACAUGAGGAUCACCCAUGUCACAGGUAGGUCGCUGUAUUCGUA [JR_ExcArginiB_Sub023]	33.6	40.1	30.8	31.1	32.6
GGAUAGGACAGAAGGAGCGACAUGCGACGAAAGUCGAAAAGAUCACAUGAGGAUCACCCAUGUCAGGUAGGUCGCUGUCCUAUCG [ArgXB 10 #Zipper #MS2Left #StaticStem #Blueprint]	119	115	89.9	127	154
AAAAUAGAAGGAAGACAAAUAGAUACAGAAGGAGCGUAGGAAACUACAGGUAGGUCGCUGGAAAACAUGAGGAUCACCCAUGUAG [SSArg A #22 Slice of Pi Skeleton]	31.5	54	42.6	40.6	46.9
UAAACUACACAUGAGGAUCACCCAUGUGGCCGAGGACCGGUACGGCCGCCACUCGUGUGUUAAUAAAAGAACUGCAAGAUUCUUU [Issoraor]	78.3	220	–	–	396
AAUAAUAACAUGGGUGAAGUCGUACCAUAACGAGGACCGGUACGGCCGCCACUCGAACAUGAGGAUCACCCAUGUAGGUACGACA [M'-T'-T-MS2-T'' - Design 9]	37.6	110	43.7	86.6	85.2
UAAUAGAUUACGGCCGCCACUGAAGUGGACUUUAUGAGCAGGAUUCACAUGAGGAUCACCCAUGUCAGGACCGGGUACGUCCAUA [theeternabot_exclusion_MS2_Trp_B_33]	25.6	44	–	–	44.3
CGCGGUUGAGAUGGGCCUUUGAUAAGUCUGCGAGGACCGGUACGGCCGCCACUCGAGGACAUGAGGAUCACCCAUGUACUUCGCG [Atriera]	51.1	81	–	–	57.7
ACAUAUUGGUGGUACCAACGAAGGCGGAAACGAGGACCGGUACGGCCGCCACUCGGCGACAUGAGGAUCACCCAUGUGGUUAAAA [Exclusion - Tryptophan A (Freestyle 2)]	–	153	972	149	851
AGGUGCAAAGCACCCUCUGGCCCUCGUGAAGGAGCGCUCGAAAGAGCAGGUAGGUCGCAUGAGGAUCACCCAUGUGAGCCAGAGA [Arg A Exc A v1]	35.1	83.5	56.2	52.5	65.3

Sequence	apparent KD of MS2 coat protein (input ligand: arginine 13.2 mM) [nM]	apparent KD of MS2 coat protein [1] [nM]	apparent KD of MS2 coat protein [2] [nM]	apparent KD of MS2 coat protein (input ligand: none) [nM]	apparent KD of MS2 coat protein [3] [nM]
CGUCGAAACUGAAGGAGCGAGAUGACAACAUUGGGUCUAACAUGAGGAUCACCCAUGUAAUCUCAGGUAGGUCGCGGUGUCAACA [Exclusion Arginine B GF18]	53.7	86.3	63.9	64.6	120
CUGCCACAGAUAGAUACCAGAGGCGUGCAAGCUACAGCUCACAUGAGGAUCACCCAUGUUCUCCCUUGGCAGCUACGGUGUAAGG [theeternabot_exclusion_MS2_Theo_B_26]	17.1	24	19.4	–	–
AAUUAUCAGUCGGCCGCCACUGACACAUGAGGAUCACCCAUGUAACUUGGGUUAAAUUUAAUAAACAGGACCGGGACAAAGGCUA [JR_ExcTryptoB_Sub010]	94.4	189	–	–	192
GACAUGAGGAUCACCCAUGUAUUGGGUGAUACCAGCCUGAAUCAUGGCCCUUGGCAGCACCGCGCUAACUUUAUGUUUGCGAACC [Mavegeceri]	95	210	56.5	–	–
AUAUUAAUCGGAAGGAGCGGUACAUGAGGAUCACCCAUGUGUGAAGCGAGCAGAUCCCGUUACCAGGUAGGUCGCCGAGUUAUGA [XArg-B6]	85.4	229	148	213	187
CCACACAUGAGGAUCACCCAUGUAAUUGAUACCAGAUUUAAAUGAGUCCCUUGGCAGCAGUGAGCUAGAGUUGUCGUAUAUAUGG [Theo A SS t2]	14.2	23.8	16.1	–	–
ACAUGAGGAUCACCCAUGUUCCUCGCCGAUACCAGUGAAGAAUUACGCCCUUGGCAGCGGAAAGAGUGUUUUGGAGAUGAGGUAC [6.aA]	80.5	112	100	–	–
ACGCUGAUUGAUUACAAUCAGCGAAAAGAUACCAGUGGGUAAUCCCACCCUUGGCAGCUUAAACAAGAGGAUCACCCUUGUGGUA [TheoAS 16 #MS2Right #BothOrNeither #AlternativeMS2]	102	370	521	201	238
GCACCAGGUACGGAUACCAGCUGCUCGAGAUACAUGAGGAUCACCCAUGUGACCUGGUUUAGCCCUUGGCAGCUGUACCUGGUGC [#15 Same State - Theophylline B]	16.4	15.3	17.2	–	–
UGUACCUGUAUCUGGUCCAUAGUAUAACCUCGAGGACCGGUACGGCCGCCACUCGUCGGACCACAUGAGGAUCACCCAUGUACCG [theeternabot_exclusion_MS2_Trp_A_23]	12.9	17.8	–	–	14.1
GAUGAAGUAACUGAUACCAGUGUACUGACAUGAGGAUCACCCAUGUUGGGUUUUGUUGUACACCCUUGGCAGCAGAAUCUUUAUC [AstrosExyTheB#5]	33.8	60.8	45.8	–	–
UGUAACAUGAGGAUCACCCAUGUGAGUGAUACCAGACUAGUGUUAGUCCCUUGGCAGCACGCUGGACGAAUGUGUAGUCUAUGCG [Same State - Theophylline A (Freestyle 19)]	55.8	108	63.9	78	58.3
GUCCUAGCGAGCACUCGCUAGGACGCGGAUACCAGCGAGGUCCAUCGCCCUUGGCAGCCGAACAUGAGGAUCACCCAUGUCGGUA [#1 Same State - Theophylline A Attempt #17 (HarryS)]	12.6	13.2	9.86	10	18
AGAGUUAGACAAAAGUCUAGCUCACCAGAAGGAGCGUCCGAAAGGACAGGUAGGUCGCUGGUACAUGAGGAUCACCCAUGUUCCU [ArgAS 8 #OpenEnded]	43.5	116	82	124	145
AAACAUGAGGAUCACCCAUGUCCUCCUGUCCGAGGACCGGUACGGCCGCCACUCGGUUCUCGGGAGGAUGGUCAAAGACUAUCCA [Omei Trp A SS B v9]	120	327	–	–	332
AAACAUGAGGAUCACCCAUGUCCUCGUGAUCGAGGACCGGUACGGCCGCCACUCGGUCCUCGCGAGGUGGAGUCAAAGACUCCAA [Omei Trp A SS A v7]	73.9	215	69.5	182	115
CCGGCGCGAUUAUGGGUUUGCUUUUACGAUACCAGCCGCGUUCCGGGCCCUUGGCAGCGUGUAACAUGAGGAUCACCCAUGUUCA [theeternabot_exclusion_MS2_Theo_A_37]	9.81	20.7	10.1	–	–
GGACUAACCAGAAGGAGCGACACGCAGAAACUGCAAAUUCCUCCGCACGAGGAUCACCCGUGUCAGGUAGGUCGCUGGUUAGUCG [ArgBX 28]	22.9	33.2	22.4	19.4	23.5

— the supplement of paper PMC9170038
